Assay results: IntAct's records for PubMed 11356864

B1: Syndecan-2 (Rattus norvegicus (Rat)), P34900 (parent)
chain: MQRAWILLTLGLMACVSAETRAELTSDKDMYLDSSSIEEASGLYPIDDDDYSSASGSGAYEDKGSPDLTTSQLIPRISLTSAAPEVETMTLKTQSITPTQTESPEETDKKEFEISEAEEKQDPAVKSTDVYTEKHSDNLFKRTEVLAAVIAGGVIGFLFAIFLILLLVYRMRKKDEGSYDLGERKPSSAAYQKAPTKEFYA

Variants of: B1
Settings: with nf1_human NF1, P21359
nf1_human NF1, P21359, sequence (P21359 whole entry): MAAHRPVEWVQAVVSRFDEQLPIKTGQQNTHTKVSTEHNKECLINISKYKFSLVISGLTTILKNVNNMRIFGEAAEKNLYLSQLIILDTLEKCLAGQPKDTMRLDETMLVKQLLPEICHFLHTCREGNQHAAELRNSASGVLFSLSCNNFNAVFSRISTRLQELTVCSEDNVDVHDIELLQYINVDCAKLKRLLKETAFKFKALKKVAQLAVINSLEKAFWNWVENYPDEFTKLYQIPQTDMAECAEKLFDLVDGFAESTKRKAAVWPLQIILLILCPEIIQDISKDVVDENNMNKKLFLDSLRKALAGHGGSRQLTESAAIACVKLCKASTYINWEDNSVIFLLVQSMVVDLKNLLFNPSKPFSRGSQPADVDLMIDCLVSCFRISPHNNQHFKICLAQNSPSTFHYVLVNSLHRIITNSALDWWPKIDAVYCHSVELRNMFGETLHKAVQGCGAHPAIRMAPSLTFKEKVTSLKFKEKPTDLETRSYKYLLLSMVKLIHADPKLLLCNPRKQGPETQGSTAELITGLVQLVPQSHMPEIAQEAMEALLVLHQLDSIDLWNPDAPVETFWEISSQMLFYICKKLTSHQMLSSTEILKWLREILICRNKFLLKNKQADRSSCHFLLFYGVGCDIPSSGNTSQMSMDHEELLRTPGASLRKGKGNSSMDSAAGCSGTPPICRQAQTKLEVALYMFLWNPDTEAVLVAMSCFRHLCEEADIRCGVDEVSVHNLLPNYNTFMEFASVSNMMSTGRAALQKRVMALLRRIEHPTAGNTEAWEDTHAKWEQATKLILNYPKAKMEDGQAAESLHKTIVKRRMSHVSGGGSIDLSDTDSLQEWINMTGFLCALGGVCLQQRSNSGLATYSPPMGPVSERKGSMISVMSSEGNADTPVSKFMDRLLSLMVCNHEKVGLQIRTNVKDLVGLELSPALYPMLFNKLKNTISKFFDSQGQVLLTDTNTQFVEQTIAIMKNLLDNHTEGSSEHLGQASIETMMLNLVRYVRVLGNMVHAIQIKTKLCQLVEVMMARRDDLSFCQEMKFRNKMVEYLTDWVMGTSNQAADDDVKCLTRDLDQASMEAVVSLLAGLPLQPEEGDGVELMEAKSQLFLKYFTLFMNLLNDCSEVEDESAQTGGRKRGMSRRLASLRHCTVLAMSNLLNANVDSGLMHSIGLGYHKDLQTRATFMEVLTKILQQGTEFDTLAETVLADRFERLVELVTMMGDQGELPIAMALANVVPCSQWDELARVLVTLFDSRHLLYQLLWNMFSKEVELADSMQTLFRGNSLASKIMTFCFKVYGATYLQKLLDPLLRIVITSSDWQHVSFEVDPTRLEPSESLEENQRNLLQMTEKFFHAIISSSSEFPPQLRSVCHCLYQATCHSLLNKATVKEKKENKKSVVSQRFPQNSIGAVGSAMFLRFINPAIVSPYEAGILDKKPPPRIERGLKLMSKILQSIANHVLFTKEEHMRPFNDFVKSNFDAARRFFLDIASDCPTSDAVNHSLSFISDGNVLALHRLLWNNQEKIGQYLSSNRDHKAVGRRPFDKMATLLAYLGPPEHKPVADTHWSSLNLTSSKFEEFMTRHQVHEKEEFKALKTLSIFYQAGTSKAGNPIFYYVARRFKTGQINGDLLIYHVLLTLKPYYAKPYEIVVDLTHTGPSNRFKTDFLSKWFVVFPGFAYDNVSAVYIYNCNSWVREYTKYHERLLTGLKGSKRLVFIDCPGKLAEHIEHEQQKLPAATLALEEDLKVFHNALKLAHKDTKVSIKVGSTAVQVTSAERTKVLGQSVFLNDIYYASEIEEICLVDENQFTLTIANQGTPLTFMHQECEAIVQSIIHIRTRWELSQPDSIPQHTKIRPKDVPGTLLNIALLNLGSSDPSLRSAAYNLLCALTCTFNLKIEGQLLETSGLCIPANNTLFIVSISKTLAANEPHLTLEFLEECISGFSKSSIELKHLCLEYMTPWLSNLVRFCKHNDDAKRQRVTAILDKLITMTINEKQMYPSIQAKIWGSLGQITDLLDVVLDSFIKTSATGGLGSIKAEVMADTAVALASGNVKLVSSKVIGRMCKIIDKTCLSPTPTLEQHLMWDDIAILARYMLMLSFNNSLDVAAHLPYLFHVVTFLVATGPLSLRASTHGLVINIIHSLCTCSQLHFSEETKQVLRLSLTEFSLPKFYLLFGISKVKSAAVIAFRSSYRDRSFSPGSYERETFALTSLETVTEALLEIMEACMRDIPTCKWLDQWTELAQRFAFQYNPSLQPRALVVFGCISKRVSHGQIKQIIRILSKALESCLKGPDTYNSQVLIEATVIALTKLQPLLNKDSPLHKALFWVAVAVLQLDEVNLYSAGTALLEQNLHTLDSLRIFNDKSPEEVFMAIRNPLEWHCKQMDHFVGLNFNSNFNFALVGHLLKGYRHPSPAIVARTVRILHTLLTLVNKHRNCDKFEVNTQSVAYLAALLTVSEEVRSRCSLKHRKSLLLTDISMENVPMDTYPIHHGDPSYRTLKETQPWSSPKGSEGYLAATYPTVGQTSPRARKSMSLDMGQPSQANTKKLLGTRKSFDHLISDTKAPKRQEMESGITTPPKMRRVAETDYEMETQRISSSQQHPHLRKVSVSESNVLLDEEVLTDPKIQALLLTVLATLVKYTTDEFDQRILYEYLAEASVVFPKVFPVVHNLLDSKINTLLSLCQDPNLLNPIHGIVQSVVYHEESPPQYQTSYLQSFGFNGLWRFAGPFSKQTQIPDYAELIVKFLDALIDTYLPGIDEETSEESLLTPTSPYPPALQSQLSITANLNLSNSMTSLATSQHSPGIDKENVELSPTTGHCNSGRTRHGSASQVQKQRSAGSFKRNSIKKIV

| Variant | effect of a mutation on the interaction |
| --- | --- |
| K174A;D175A | decreasing interaction |
| R172A;K173A | decreasing interaction |
| E176A;G177A | decreasing interaction |
| S178A;Y179A | increasing interaction |

Variants of: B1
Settings: with nf1_human NF1, P21359
Remark: another data set of the same source

| Variant | effect of a mutation on the interaction |
| --- | --- |
| S178A;Y179A | decreasing interaction |
